Target: NR1 ATD fusion protein on 293T-ATD cells (human)
Experiment: flow cytometry on 293T-ATD cells, co-stained with commercial anti-NR1 mAb

Chain of NR1 ATD fusion protein on 293T-ATD cells (human) (chain, as listed by the source limits assumed): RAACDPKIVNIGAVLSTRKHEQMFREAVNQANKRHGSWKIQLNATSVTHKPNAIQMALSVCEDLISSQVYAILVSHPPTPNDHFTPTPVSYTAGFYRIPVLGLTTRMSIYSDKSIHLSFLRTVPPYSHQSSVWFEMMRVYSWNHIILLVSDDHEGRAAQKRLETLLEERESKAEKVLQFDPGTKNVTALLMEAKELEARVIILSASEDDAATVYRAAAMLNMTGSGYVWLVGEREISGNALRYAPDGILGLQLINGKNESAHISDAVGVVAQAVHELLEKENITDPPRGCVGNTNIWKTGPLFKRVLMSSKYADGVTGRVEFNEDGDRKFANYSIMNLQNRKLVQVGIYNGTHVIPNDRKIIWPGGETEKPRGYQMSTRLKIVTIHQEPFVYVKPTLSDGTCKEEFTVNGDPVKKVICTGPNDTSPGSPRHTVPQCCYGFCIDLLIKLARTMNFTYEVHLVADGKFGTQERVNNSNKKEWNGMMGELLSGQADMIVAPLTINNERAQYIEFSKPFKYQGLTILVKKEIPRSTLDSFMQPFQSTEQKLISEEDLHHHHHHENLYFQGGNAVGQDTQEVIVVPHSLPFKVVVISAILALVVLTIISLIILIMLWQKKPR

- Percent GluN1 positive 293T-ATD cells bound: 18%
- double positive cells: 12.4%
Substance: 6A isotype control human mAb (antibody)

From patent US20220073611A1
